Biological target: GST-human NOGO-A56 (human) [GST: P08515]
Assay: SPR (Biacore 3000), GST-human NOGO-A56 on CM5, antibody as analyte; single experiment

GST-human NOGO-A56 (human) [GST: P08515], sequence (P08515 1-218, tags or fused parts left off): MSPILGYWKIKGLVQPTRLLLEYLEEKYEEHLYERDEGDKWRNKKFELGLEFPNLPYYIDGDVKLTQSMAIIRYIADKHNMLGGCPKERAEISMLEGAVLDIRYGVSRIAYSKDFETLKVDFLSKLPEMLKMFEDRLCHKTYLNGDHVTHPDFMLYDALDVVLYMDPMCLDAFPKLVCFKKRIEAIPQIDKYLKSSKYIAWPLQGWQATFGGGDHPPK

Kd: 0.057 nM
koff: 8.25e-05 s⁻¹
kon: 1.44e+06 M⁻¹ s⁻¹
Substance: 11C7 (chimeric version) (antibody)

Source: patent publication US20060029603A1
